Publication PMC3606058 (Structure (London, England : 1993), 2013)

Biological target: T1, Pf Cmr2dHD (Pf1129), HD-domain-deleted Cmr2, N-terminally poly-histidine tagged (Pyrococcus furiosus, UniProt Q8U1S6 213-871)
T1 sequence (looked up): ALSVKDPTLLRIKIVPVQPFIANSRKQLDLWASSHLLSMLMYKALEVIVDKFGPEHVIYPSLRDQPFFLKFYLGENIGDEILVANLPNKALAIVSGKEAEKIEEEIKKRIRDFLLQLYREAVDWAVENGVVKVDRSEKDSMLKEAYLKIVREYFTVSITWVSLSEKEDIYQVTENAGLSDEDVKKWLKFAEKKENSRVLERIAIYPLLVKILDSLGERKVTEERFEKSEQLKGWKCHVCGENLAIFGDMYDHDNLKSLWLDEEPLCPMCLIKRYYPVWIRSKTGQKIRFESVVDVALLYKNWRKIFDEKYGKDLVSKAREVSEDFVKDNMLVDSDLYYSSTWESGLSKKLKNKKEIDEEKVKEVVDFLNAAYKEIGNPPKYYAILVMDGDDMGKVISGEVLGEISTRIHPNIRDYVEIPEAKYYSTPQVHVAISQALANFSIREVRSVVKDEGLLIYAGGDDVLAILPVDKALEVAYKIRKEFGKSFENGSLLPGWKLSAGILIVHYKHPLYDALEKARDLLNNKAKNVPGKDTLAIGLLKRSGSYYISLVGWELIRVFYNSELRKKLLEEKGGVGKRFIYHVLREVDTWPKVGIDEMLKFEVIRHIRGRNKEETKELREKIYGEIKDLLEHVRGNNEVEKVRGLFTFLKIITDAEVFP
Assay: crystal structure

- stoichiometry N: 1 Cmr3:Cmr2dHD
B1: Pf Cmr3 (Pf1128), untagged (natural protein, Pyrococcus furiosus)
chain: MIEVTFTPYDVLLFRESRPFDAGSESVARSIIPLPQTVAGAIRTLLFYKGLKNCVGVGEEEPEFTLVGIAIGTEKGRIYPLPFNIIKSEKFYKVVNPGRFLGKLILPPKGKYKSGYVTESILEKYLKGELKEVEENKVIRIEKEKRIGIKLSREKKVVEEGMLYTVEFLRIEKIYAWIEDPGCGIKDILSSYEFLTLGGESRVAFVEVDDKTPDIFNRELGSTKKALFYFSTPTIGKVGEIVQELEKRLNAKIDDYLLVSSRPTAISGWDMHEKKPKGTKFAIPPGSVLFVEFKEEVEVPPYIKLGKLKKLGYGLALGGIWE
